The target in assay [1] is T1, cynomolgus Tim3 (ELISA) (cynomolgus, UniProt A0A2K5U3G7 22-193).
T1 construct: also called Biochem Cyno; cyno TIM3
T1 sequence: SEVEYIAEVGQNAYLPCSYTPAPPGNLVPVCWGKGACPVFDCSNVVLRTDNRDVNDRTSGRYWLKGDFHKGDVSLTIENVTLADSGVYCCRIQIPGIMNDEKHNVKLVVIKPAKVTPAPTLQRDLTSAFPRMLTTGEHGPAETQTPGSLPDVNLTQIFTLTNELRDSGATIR
Briefly: ELISA, cyno Tim3. For orientation: ELISA stands for enzyme-linked immunosorbent assay.

Assay [2] deals with T2, Tim3-ECD-His-Biotin (human, UniProt Q8TDQ0 22-202).
T2 construct: also called human Tim3 (ELISA); Biochem Human
Briefly: ELISA, human Tim3.

Assay [3] concerns the target T3, human TIM-3 on cells (human, UniProt Q8TDQ0 22-301).
T3 construct: also called CHO-Tim3; rec CHOK1 cells expressing huTIM-3
Briefly: cell ELISA, CHO-Tim3.

In assay [4] the target is T1, cynomolgus Tim3 (ELISA). Kind of assay: ELISA, cyno Tim3; EC50 relative to the sample's max value.
Assay [5] deals with T2, Tim3-ECD-His-Biotin. Kind of assay: ELISA, human Tim3; EC50 relative to the sample's max value.
Assay [6] has as its target T3, human TIM-3 on cells. Kind of assay: cell ELISA, CHO-Tim3; EC50 relative to the sample's max value.
Assay [7] concerns the target T4, murine FolR1 ECD-AcTev-Fcknob-Avitag + Fc hole, biotinylated monomeric Fc fusion (murine, UniProt P0DOX5 223-449 = IgG part).
T4 construct: also called muFolR1; murine FolR1-Fc
Briefly: SPR, IgG single injection.

Assay [8] deals with T3, human TIM-3 on cells. Briefly: cell-based or functional assay.
For assay [9], the target named is T5, cynomolgus TIM-3 on isolated cyno CD14+ monocytes (cynomolgus).
T5 construct: whole, on cells
Kind of assay: flow cytometry, cyno CD14+ monocytes cyno1.

The target in assay [10] is T5, cynomolgus TIM-3 on isolated cyno CD14+ …. Kind of assay: flow cytometry, cyno CD14+ monocytes cyno2.
From the text: (§1) CD14+ Monocytes were isolated from cynomolgus monkey anticoagulated peripheral blood (Covance) by density gradient centrifugation using Ficoll-Paque (GE Healthcare) (see General Protocols in the User Manuals or visit www.miltenyibiotec.com/protocols) and subsequent positive selection via NHP CD14 MicroBeads. First the CD14+ cells are magnetically labeled with CD14 MicroBeads. Then the cell suspension is loaded onto a MACS® Column which is placed in the magnetic field of a MACS Separator. The magnetically labeled CD14+ cells are retained in the column. The unlabeled cells run through, this cell fraction is depleted of CD14+ cells. After removal of the column from the magnetic field, the magnetically retained CD14+ cells can be eluted as the positively selected cell fraction. After centrifugation at 200×g for 10 min at room temperature the monocytes were harvested and used directly in binding assay or resuspended in freezing medium (10% DMSO, 90% FCS) at 1.0E+07 cells/ml and stored in liquid nitrogen.
(§2) 1×10⁵ CD14+ isolated cyno monocytes (50 μl/well) were put into 98 well-v bottom MTP in fresh culture medium and incubated with Redimune® NF Liquid for 15 min at RT to block unspecific binding. Than 50 μl/well of Alexa488 labeled anti-TIM3 (10 μg/ml in cell culture medium) were added and incubated for 1 h at 4° C. After washing and centrifugation MFI signals of stained cells were analyzed by BD Biosciences FACSCanto flow cytometer.
Assay [11] shares this target. Briefly: flow cytometry, cyno CD14+ monocytes cyno3. (In general: A flow cytometer gives signals particle by particle.)
From the text: as §1, §2
In assay [12] the target is T3, human TIM-3 on cells. Kind of assay: flow cytometry, human CD14+ monocytes donor1.
From the text: (§3) CD14+ Monocytes were isolated from anticoagulated peripheral blood of healthy donors by density gradient centrifugation using Ficoll-Paque (GE Healthcare) (see General Protocols in the User Manuals or visit www.miltenyibiotec.com/protocols) and subsequent positive selection via CD14 MicroBeads. First the CD14+ cells are magnetically labeled with CD14 MicroBeads. Then the cell suspension is loaded onto a MACS® Column which is placed in the magnetic field of a MACS Separator. The magnetically labeled CD14+ cells are retained in the column. The unlabeled cells run through, this cell fraction is depleted of CD14+ cells. After removal of the column from the magnetic field, the magnetically retained CD14+ cells can be eluted as the positively selected cell fraction. After centrifugation at 200×g for 10 min at room temperature the monocytes were harvested and used directly in binding assay or resuspended in freezing medium (10% DMSO, 90% FCS) at 1.0E+07 cells/ml and stored in liquid nitrogen.
(§4) 1×10⁵ CD14+ isolated human monocytes (50 μl/well) were put into 98 well-v bottom MTP in fresh culture medium and incubated with Redimune® NF Liquid for 15 min at RT to block unspecific binding. […] After washing and centrifugation MFI signals of stained cells were analyzed by BD Biosciences FACSCanto flow cytometer.
The target of assay [13] is T3, human TIM-3 on cells. Kind of assay: flow cytometry, human CD14+ monocytes donor2.
From the text: as §3, §4
Assay [14] has as its target T3, human TIM-3 on cells. Briefly: flow cytometry, human CD14+ monocytes donor3.
Assay [15] has as its target T3, human TIM-3 on cells. Briefly: cell-based or functional assay. The source holds these as a separate data set.
Assay [16] has as its target T6, human FolR2 ECD-AcTev-Fcknob-Avi tag + Fc hole, biotinylated monomeric Fc fusion (human, UniProt P0DOX5 223-449 = IgG part).
T6 construct: also called huFolR2; FolR2-Fc
Kind of assay: SPR, IgG single injection. (In SPR one partner is held on a chip, and binding of the other changes the refractive index at the surface.)

Assay [17] deals with T7, human FolR3 ECD-AcTev-Fcknob-Avi tag + Fc hole, biotinylated monomeric Fc fusion (human, UniProt P0DOX5 223-449 = IgG part).
T7 construct: also called huFolR3; FolR3-Fc
Kind of assay: SPR, IgG single injection.

Assay [18] addresses human FolR2 on transiently transfected HEK cells (human, UniProt P14207 17-230). Briefly: flow cytometry on HEK cells transiently transfected with human FolR2, anti-human secondary antibody; concentration not given.
Assay [19] has as its target T8, human FolR1 ECD-AcTev-Fcknob-Avi tag + Fc hole, biotinylated monomeric Fc fusion (human, UniProt P0DOX5 223-449 = IgG part).
T8 construct: also called huFolR1; huFolR1-Fc
Briefly: SPR ProteOn, Fab analyte.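 Note: recombinant antigens immobilized, purified Fab two-fold dilutions injected in parallel channels, 200 s association and 600 s dissociation, buffer-only channel as in-line reference.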
Method: (§5) Immobilization of antigens (ligand): Recombinant antigens were diluted with PBST (10 mM phosphate, 150 mM sodium chloride pH 7.4, 0.005% Tween 20) to 10 μg/ml, then injected at 30 μl/minute in vertical orientation.
(§6) Injection of analytes: For ‘one-shot kinetics’ measurements, injection direction was changed to horizontal orientation, two-fold dilution series of purified Fab (varying concentration ranges) were injected simultaneously along separate channels 1-5, with association times of 200 s, and dissociation times of 600 s. Buffer (PBST) was injected along the sixth channel to provide an “in-line” blank for referencing. Association rate constants (kₒₙ) and dissociation rate constants (koff) were calculated using a simple one-to-one Langmuir binding model in ProteOn Manager v3.1 software by simultaneously fitting the association and dissociation sensorgrams. The equilibrium dissociation constant (KD) was calculated as the ratio koff/kₒₙ.

The target of assay [20] is T9, cynomolgus FolR1 ECD-AcTev-Fcknob-Avi tag + Fc hole, biotinylated monomeric Fc fusion (cynomolgus, UniProt P0DOX5 223-449 = IgG part).
T9 construct: also called cyFolR1; cyno FolR1-Fc
Briefly: SPR ProteOn, Fab analyte.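 Note: recombinant antigens immobilized, purified Fab two-fold dilutions injected in parallel channels, 200 s association and 600 s dissociation, buffer-only channel as in-line reference.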
Method: as §5, §6

In assay [21] the target is T6, human FolR2 ECD-AcTev-Fcknob-Avi tag + …. Briefly: SPR ProteOn, Fab analyte.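 Note: recombinant antigens immobilized, purified Fab two-fold dilutions injected in parallel channels, 200 s association and 600 s dissociation, buffer-only channel as in-line reference.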
Method: as §5, §6
The target of assay [22] is T7, human FolR3 ECD-AcTev-Fcknob-Avi tag + …. Briefly: SPR ProteOn, Fab analyte.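 Note: recombinant antigens immobilized, purified Fab two-fold dilutions injected in parallel channels, 200 s association and 600 s dissociation, buffer-only channel as in-line reference.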
Method: as §5, §6

Residue numbers refer to the chain shown, from its start.

Sequence of human FolR2 on transiently transfected HEK cells (P14207 17-230 limits assumed): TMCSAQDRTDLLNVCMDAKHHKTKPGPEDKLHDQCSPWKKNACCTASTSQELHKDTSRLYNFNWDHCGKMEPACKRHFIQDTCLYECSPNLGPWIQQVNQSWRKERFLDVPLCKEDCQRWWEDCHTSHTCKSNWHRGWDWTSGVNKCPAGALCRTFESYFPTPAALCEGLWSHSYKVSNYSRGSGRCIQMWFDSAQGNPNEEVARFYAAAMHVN

B1: aTim3 0018MutNQ (antibody, V domains shown)
VH: QVTLKESGPGILQPSQTLSLTCSFSGFSLSTSGMSVGWIRQPSGKGLEWLAHIWLNDDVFFNPALKRRLTISKDTSNNQVFLQIASVVTADTATYYCVRANGYLYALDYWGQGISVTVSS
VL: QIVLTQSPAIMSASPGQKVTITCSASSSVQYTQWYQQKLGSSPKLWIYDAFKLAPGVPARFSGSGTGTSYSLTISSMEAEDAASYFCHQWSSYPWTFGGGTKLEIK
notes: also called aT3m3 0018MutNQ
Consider B1, for which the inflexion point with cynomolgus Tim3 (ELISA) [1] amounted to 10.8 ng/mL; in the assay with Tim3-ECD-His-Biotin [2], 10.8 ng/mL; with human TIM-3 on cells [3], 12.8 ng/mL. Further, the EC50 – broadly, the midpoint of the concentration-response curve – was 13.2 ng/mL with cynomolgus Tim3 (ELISA) [4], 12 ng/mL with Tim3-ECD-His-Biotin [5] and 13.4 ng/mL in the assay with human TIM-3 on cells [6].

B2: aTim3 0018MutNS (antibody, V domains shown)
VH: B1 VH
VL: B1 VL with Q30S
notes: also called aT3m3 0018MutNS
In the case of B2, the figures for the inflexion point with cynomolgus Tim3 (ELISA) [1], with Tim3-ECD-His-Biotin [2] and with human TIM-3 on cells [3] were 6.5 ng/mL, 6.5 ng/mL and 11.1 ng/mL, respectively. Moreover, the results for the concentration giving a half-maximal response (EC50) with cynomolgus Tim3 (ELISA) [4], with Tim3-ECD-His-Biotin [5] and in the assay with human TIM-3 on cells [6] were 11.9 ng/mL, 10.3 ng/mL and 11.2 ng/mL, respectively.

B3: aTim3 0016MutNS (antibody, V domains shown)
VH: B1 VH with S19R, R67S, I114T
VL: B1 VL with Q30S
On to B3, for which the inflexion point was determined as 5.5 ng/mL with cynomolgus Tim3 (ELISA) [1], 6.5 ng/mL in the assay with Tim3-ECD-His-Biotin [2] and 8.5 ng/mL with human TIM-3 on cells [3]. The concentration for a half-maximal effect (EC50) was 9.7 ng/mL with cynomolgus Tim3 (ELISA) [4], 8.5 ng/mL with Tim3-ECD-His-Biotin [5] and 9.1 ng/mL with human TIM-3 on cells [6].

B4: aTim3 0016 MutNQ (antibody, V domains shown)
VH: B1 VH with S19R, R67S, I114T
VL: B1 VL
Consider B4, for which the inflexion point with cynomolgus Tim3 (ELISA) [1] was 5.7 ng/mL; with Tim3-ECD-His-Biotin [2] it was 5.7 ng/mL; with human TIM-3 on cells [3], 5.4 ng/mL. The 50% effective concentration (EC50) is 8.3 ng/mL with cynomolgus Tim3 (ELISA) [4], 7.6 ng/mL with Tim3-ECD-His-Biotin [5] and 6.8 ng/mL in the assay with human TIM-3 on cells [6].

B5: 6B6 IgG (antibody, V domains shown)
VH: QVQLVQSGAEVKKPGASVKVSCKASGYTFTSYYMHWVRQAPGQGLEWMGIINPSGGSTSYAQKFQGRVTMTRDTSTSTVYMELSSLRSEDTAVYYCARSYVDMDYWGQGTLVTVSS
VL: EIVLTQSPGTLSLSPGERATLSCRASQSVSSSYLAWYQQKPGQAPRLLIYGASSRATGIPDRFSGSGSGTDFTLTISRLEPEDFAVYYCQQDIWSPTFGQGTKVEIK
notes: human IgG1
In the case of B5, in assay [7], the binding result was “no binding (tested: 500 nM)”.

B6: Tim3_0038 (antibody, V domains shown)
VH: EVQLQQSGAEPLKPGASVKLTCTTSGFNIKDYYIHWVKQRSDQGLEWIGRIDPEDGELIYAPKFQDKATITVDTSSNIAYLQLNSLTSEDTAVYYCSRDHGYVGWFAYWGQGTLVTVSA
VL: NVVMTQSPKSMIMSVGQRVTLNCKASENVDTYVSWYQQKPEQSPKLLIYGASNRYTGVPDRFTGSRSATDFTLTISSVQAEDLAVYYCGQSYSYPWTFGGGTKLEFR
B6: the “IFN-gamma release in MLR at 1 µg/ml, % of IL-2 control” value with human TIM-3 on cells [8] came to 1%. Also, the “IFN-gamma release in MLR at 10 µg/ml, % of IL-2 control” value in the assay with human TIM-3 on cells [8] amounted to 38%. For the same molecule, the “IFN-gamma release in MLR at 40 µg/ml, % of IL-2 control” value in the assay with human TIM-3 on cells [8] turned out to be 51%. Besides, the figures for the MFI in assay [9], in assay [10] and in assay [11] were 97 MFI, 107 MFI and 120 MFI, respectively. Moreover, the results for the “specific binding MFI” value with human TIM-3 on cells [12], with human TIM-3 on cells [13] and with human TIM-3 on cells [14] were 1640 MFI, 1370 MFI and 1400 MFI, respectively.

B7: Tim3_0028 (antibody, V domains shown)
VH: EVQLQQSVAELVRPGASVKLSCTASGFNIKTTYMHWVKQRPEQGLEWIGRIDPADDNTKYAPKFQGKATITADTSSNTAYLQLSSLTSEDAAIYYCVRDFGYVAWFAYWGQGTLVTFSA
VL: NIVMTPTPKFLPVSSGDRVTMTCRASQSVDNYVAWYQQKPGQSPKLLIYYASNRYIGVPDRFTGSGSGTDFTFTISSVQVEDLAVYFCQQHYSSPYTFGSGTKLEIK
Take B7: the “IFN-gamma release in MLR at 1 µg/ml, % of IL-2 control” value with human TIM-3 on cells [8] is 12%. Also, in the assay with human TIM-3 on cells [15], the “internalization at 30 Min, RPMI-8226” value worked out at 50%; the “internalization at 60 Min, RPMI-8226” value was 59%; the “internalization at 120 Min, RPMI-8226” value was determined as 67%; the “internalization at 240 Min, RPMI-8226” value came to 68%. The “internalization at 26 h, RPMI-8226” value in the assay with human TIM-3 on cells [15] amounted to 83%. Moreover, in assay [9], the MFI came out at 3940 MFI. In [10], this molecule displayed an MFI of 3000 MFI. The same molecule showed an MFI in assay [11] of 4090 MFI. For the same molecule, in the assay with human TIM-3 on cells [12], the “specific binding MFI” value was 1350 MFI. For the same molecule, the “specific binding MFI” value in the assay with human TIM-3 on cells [13] is 950 MFI. The “specific binding MFI” value with human TIM-3 on cells [14] was 1610 MFI.

B8: 16F12 IgG (antibody, V domains shown)
VH: QVQLVQSGAEVKKPGASVKVSCKASGYTFTSYYMHWVRQAPGQGLEWMGIINPSGGSTSYAQKFQGRVTMTRDTSTSTVYMELSSLRSEDTAVYYCARNFTVLRVPFDYWGQGTLVTVSS
VL: QAVVTQEPSLTVSPGGTVTLTCGSSTGAVTTSNYANWVQEKPGQAFRGLIGGTNKRAPGTPARFSGSLLGGKAALTLSGAQPEDEAEYYCALWYSNLWVFGGGTKLTVL
notes: human IgG1
In the case of B8, the binding result in assay [7], in assay [16] and in assay [17] was “no binding (tested: 500 nM)” each time.

B9: 21A5 IgG (antibody, V domains shown)
VH: not shown
VL: B8 VL
notes: human IgG1
B9: the results for the binding result in assay [7], in assay [16] and in [18] were “no binding (tested: 500 nM)”, “no binding (tested: 500 nM)” and “no binding”, respectively.

B10: 18D3 Fab (Fab, V domains shown)
VH: QVQLVQSGAEVKKPGASVKVSCKASGYTFTSYYMHWVRQAPGQGLEWMGIINPSGGSTSYAQKFQGRVTMTRDTSTSTVYMELSSLRSEDTAVYYCARNYYTGGSSAFDYWGQGTLVTVS
VL: B8 VL
As to B10, the Kd (as a rule, the free concentration of one partner at which half of the binding sites on the other are occupied at equilibrium, for simple one-to-one binding) in assay [19] is 93.6 nM; in assay [20], 40.2 nM. For the same molecule, the binding result in assay [21] and in assay [22] was “no binding” in each case.

B11: 16D5 IgG (antibody, V domains shown)
VH: not shown
VL: B8 VL
notes: human IgG1
In the case of B11, the binding result in assay [7] was “no binding (tested: 500 nM)”; in [16], “no binding (tested: 500 nM)”; in [17], “no binding (tested: 500 nM)”; in assay [18] it was “no binding”.

B12: 15B6 IgG (antibody, V domains shown)
VH: B8 VH with F100Y, T101Y, V102I, L103G, R104I
VL: B8 VL
notes: human IgG1
Consider B12, for which the binding result in assay [7], in [16] and in assay [17] was “no binding (tested: 500 nM)” in each case.

B13: 21G8 IgG (antibody, V domains shown)
VH: not shown
VL: B8 VL
notes: human IgG1
As for B13, the binding result in assay [7] was “no binding (tested: 500 nM)”; in [18] it was “binds”.
